The results in this text go back to doi:10.1101/2021.06.10.447992 (bioRxiv, 2021).

This series concerns the molecule itself. As to the kind of experiment: AUC.

B1: Y137C COA7 pathogenic variant, recombinant, GST-free (natural protein, human)
chain: GPLGSMAGMVDFQDEEQVKSFLENMEVECNYHCYHEKDPDGCYRLVDYLEGIRKNFDEAAKVLKFNCEENQHSDSCYKLGAYYVTGKGGLTQDLKAAARCFLMACEKPGKKSIAACHNVGLLAHDGQVNEDGQPDLGKARDCYTRACDGGYTSSCFNLSAMFLQGAPGFPKDMDLACKYSMKACDLGHIWACANASRMYKLGDGVDKDEAKAEVLKNRAQQLHKEQQKGVQPLTFG
With B1, the binding result was “binds”.

B2: Cytochrome c oxidase assembly factor 7 (COA7), recombinant, GST-free (natural protein, human)
chain: GPLGSMAGMVDFQDEEQVKSFLENMEVECNYHCYHEKDPDGCYRLVDYLEGIRKNFDEAAKVLKFNCEENQHSDSCYKLGAYYVTGKGGLTQDLKAAARCFLMACEKPGKKSIAACHNVGLLAHDGQVNEDGQPDLGKARDYYTRACDGGYTSSCFNLSAMFLQGAPGFPKDMDLACKYSMKACDLGHIWACANASRMYKLGDGVDKDEAKAEVLKNRAQQLHKEQQKGVQPLTFG
B2: the stoichiometry N (as a rule, the number of molecules, sites or subunits per partner or assembly) was found to be 2.
